Experimental data as given in publication PMC3776355.

Biological target: Ero1-α(WT), recombinant (human) (UniProt Q96HE7)
Assay: SPR

UniProt Q96HE7, sequence (Q96HE7 24-468): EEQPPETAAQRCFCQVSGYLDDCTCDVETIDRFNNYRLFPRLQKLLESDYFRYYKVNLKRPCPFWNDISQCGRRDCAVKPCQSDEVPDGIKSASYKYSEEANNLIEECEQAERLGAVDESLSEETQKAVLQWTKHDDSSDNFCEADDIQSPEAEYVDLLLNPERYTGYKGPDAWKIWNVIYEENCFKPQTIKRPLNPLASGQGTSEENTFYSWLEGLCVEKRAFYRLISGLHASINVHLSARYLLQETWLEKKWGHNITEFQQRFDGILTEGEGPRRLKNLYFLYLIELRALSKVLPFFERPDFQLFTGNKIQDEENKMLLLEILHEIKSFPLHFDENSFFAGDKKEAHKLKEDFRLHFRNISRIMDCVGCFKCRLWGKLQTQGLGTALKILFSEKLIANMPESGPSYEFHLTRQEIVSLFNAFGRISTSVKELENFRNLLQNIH

Question: For “PDI, recombinant (wild type) (from UniProt P07237 18-508) (enzyme)”, which Kd is on record?
Answer: 1.7 µM
